# Results taken from patent US20080044360A1.
# Bridge positions count the residues as written; N and C are the ends. Square brackets hold non-standard residues; d marks the D form. Primed or numbered codes have the meaning given here. Side chains are listed from the residue outwards. Ends that are not written are not given here. * marks the point of attachment. Tyr(3-Cl) = N[C@@H](Cc1ccc(O)c(Cl)c1)C(=O)O; Dip = N[C@H](C(=O)O)C(c1ccccc1)c1ccccc1; Phe(4-NH2) = Nc1ccc(C[C@H](N)C(=O)O)cc1; Gd^T(3) = GdDTPA attached via thiourea; d1Nal = N[C@H](Cc1cccc2ccccc12)C(=O)O; Pen = CC(C)(S)[C@H](N)C(=O)O; Gd^T = not defined here; Gd^T″ = GdDTPA-thiourea; Cbz = O=C(OCc1ccccc1)*; Dap = NC[C@H](N)C(=O)O
# B1: SEQ ID NO 159 (peptide)
# peptide: YHACYQAG[dC]WIW
# modifications: disulfide 4-9 (inferred); not fully specified (C-terminus); printed as YHACYQAGcWIW
# B2: SEQ ID NO 174 (peptide)
# peptide: QWTCSGDEYTW[dH]CNYE
# modifications: disulfide 4-13 (inferred); not fully specified (N-terminus); printed as QWTCSGDEYTWhCNYE
# B3: SEQ ID NO 167 (peptide)
# peptide: QWT[dC]SGDEYTWHCNYE
# modifications: disulfide 4-13 (inferred); not fully specified (N-terminus, C-terminus); printed as QWTcSGDEYTWHCNYE
# B4: SEQ ID NO 171 (peptide)
# peptide: QWTCSGDE[dY]TWHCNYE
# modifications: disulfide 4-13 (inferred); not fully specified (N-terminus); printed as QWTCSGDEyTWHCNYE
# B5: SEQ ID NO 169 (peptide)
# peptide: QWTCSG[dD]EYTWHCNYE
# modifications: disulfide 4-13 (inferred); not fully specified (N-terminus); printed as QWTCSGdEYTWHCNYE
# Target: human collagen type I, acid soluble, extracted from placenta (Sigma C7774) (human) (UniProt P02452)
# Sequence (P02452 162-1218 limits assumed, chain 1 of 2): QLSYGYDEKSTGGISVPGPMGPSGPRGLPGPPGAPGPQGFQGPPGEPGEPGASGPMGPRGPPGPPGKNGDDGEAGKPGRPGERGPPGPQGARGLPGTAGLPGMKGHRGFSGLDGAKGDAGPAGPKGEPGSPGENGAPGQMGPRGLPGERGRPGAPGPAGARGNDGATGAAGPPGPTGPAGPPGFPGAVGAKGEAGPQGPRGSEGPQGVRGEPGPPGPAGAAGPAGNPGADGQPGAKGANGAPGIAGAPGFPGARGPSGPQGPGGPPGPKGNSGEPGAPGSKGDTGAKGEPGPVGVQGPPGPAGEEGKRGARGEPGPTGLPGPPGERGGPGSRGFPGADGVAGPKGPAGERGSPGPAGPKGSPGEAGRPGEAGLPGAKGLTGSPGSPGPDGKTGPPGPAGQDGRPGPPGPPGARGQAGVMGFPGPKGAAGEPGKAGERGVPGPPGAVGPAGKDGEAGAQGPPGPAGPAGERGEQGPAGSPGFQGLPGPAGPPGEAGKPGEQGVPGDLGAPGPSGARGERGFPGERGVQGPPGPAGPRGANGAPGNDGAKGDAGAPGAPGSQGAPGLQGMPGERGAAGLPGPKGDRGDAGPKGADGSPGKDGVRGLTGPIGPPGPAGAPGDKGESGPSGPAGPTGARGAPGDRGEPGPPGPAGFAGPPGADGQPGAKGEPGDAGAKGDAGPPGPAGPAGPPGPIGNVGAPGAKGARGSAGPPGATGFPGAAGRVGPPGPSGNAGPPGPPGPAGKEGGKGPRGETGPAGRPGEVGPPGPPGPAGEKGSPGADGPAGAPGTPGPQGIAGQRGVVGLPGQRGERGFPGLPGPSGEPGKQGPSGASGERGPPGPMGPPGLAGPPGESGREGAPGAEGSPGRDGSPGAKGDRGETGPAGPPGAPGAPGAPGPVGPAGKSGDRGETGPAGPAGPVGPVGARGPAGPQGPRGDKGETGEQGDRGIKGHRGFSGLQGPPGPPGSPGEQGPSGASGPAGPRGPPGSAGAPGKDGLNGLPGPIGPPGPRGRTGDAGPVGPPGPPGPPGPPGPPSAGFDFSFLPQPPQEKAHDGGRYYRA
# Sequence (P08123 80-1119 limits assumed, chain 2 of 2, further chain): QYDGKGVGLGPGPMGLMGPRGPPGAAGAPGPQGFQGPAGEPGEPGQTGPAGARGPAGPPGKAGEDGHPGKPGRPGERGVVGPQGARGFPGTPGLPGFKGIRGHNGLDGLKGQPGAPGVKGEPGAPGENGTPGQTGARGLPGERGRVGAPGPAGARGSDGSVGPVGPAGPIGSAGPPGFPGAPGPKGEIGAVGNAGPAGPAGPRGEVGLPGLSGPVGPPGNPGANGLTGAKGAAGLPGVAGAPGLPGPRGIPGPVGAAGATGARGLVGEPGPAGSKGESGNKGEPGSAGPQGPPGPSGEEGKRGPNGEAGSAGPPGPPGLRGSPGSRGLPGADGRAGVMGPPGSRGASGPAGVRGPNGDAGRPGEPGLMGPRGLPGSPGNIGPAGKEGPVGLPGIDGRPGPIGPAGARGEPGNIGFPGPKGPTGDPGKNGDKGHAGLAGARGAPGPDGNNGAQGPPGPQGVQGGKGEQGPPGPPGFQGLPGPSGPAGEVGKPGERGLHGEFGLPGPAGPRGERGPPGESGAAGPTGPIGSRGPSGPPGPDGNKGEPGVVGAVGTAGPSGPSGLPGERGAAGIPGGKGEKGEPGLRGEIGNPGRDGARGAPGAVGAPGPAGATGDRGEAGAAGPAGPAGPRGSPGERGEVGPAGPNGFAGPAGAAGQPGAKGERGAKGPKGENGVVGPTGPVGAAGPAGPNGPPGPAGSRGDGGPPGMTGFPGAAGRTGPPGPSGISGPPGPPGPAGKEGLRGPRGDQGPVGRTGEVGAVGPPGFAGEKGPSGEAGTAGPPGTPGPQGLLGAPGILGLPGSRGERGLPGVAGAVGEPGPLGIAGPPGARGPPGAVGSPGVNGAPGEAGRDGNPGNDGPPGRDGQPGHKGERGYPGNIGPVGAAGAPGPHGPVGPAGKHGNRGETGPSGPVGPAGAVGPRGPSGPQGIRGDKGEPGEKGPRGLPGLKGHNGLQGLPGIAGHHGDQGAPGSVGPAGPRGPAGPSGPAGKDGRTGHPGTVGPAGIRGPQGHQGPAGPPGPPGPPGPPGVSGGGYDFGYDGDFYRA
# Experiment: dried collagen assay
row,% bound [%],Binder
1,7,{Gd^T″}-GQWHCTTD[Tyr(3-Cl)]PHHYCLYG (disulfide 5-14 (inferred); not fully specified (C-terminus)) [Compound ID 895]
2,7,B1
3,3,FSECVWVNAYQCEYF (disulfide 4-12 (inferred)) [SEQ ID NO 113]
4,6,{Gd^T″}-GQWHCTTRFPHH[dT]CLYG (disulfide 5-14 (inferred); not fully specified (C-terminus)) [Compound ID 905]
5,5,GQWTCSGDEYTAHCNYE (disulfide 5-14 (inferred); not fully specified (C-terminus)) [SEQ ID NO 147]
6,3,LWTCSMDRNYDWVCGEK (disulfide 4-14 (inferred)) [SEQ ID NO 82]
7,5,GWSCHSMDMQWHCDFS (disulfide 4-13 (inferred)) [SEQ ID NO 67]
8,3,HWSCDLAMDNEWFCSTK (disulfide 4-14 (inferred)) [SEQ ID NO 84]
9,4,{Gd^T″}-GQWHCT[dN]RFPHHYCLYG (disulfide 5-14 (inferred); not fully specified (C-terminus)) [Compound ID 897]
10,8,{Gd^T″}-GQWHCTTDFPH[Dap]YCLYG (disulfide 5-14) [Compound ID 886]
11,7,{Gd^T″}-GQWHCTTRFPHH[dR]CLYG (disulfide 5-14 (inferred); not fully specified (C-terminus)) [Compound ID 902]
12,3,GWACNTTSKGDWECTNL (disulfide 4-14 (inferred)) [SEQ ID NO 83]
13,6,RWSCVLDADGWVCSDN (disulfide 4-13 (inferred)) [SEQ ID NO 66]
14,5,{Gd^T″}-GQWHCT[dS]RFPHHYCLYG (disulfide 5-14 (inferred); not fully specified (C-terminus)) [Compound ID 898]
15,5,WQVCADSPGVITYCYTY (disulfide 4-14 (inferred)) [SEQ ID NO 98]
16,4,YHACYQAGCWAW (disulfide 4-9 (inferred)) [SEQ ID NO 137]

row,% bound [%],Binder
1,3,QWFCEMDEYGKWNCGMM (disulfide 4-14 (inferred)) [SEQ ID NO 81]
2,4,YHACAQAGCWIW (disulfide 4-9 (inferred)) [SEQ ID NO 133]
3,5,SWHCFLENHHWMCSDH (disulfide 4-13 (inferred)) [SEQ ID NO 68]
4,3,AKKCWYNDGGHLRCRTL (disulfide 4-14 (inferred)) [SEQ ID NO 99]
5,5,B2
6,6,GWSCHGDAADWPCQWS (disulfide 4-13 (inferred)) [SEQ ID NO 38]
7,6,SWYCNNGSYGQWHCEHR (disulfide 4-14 (inferred)) [SEQ ID NO 80]
8,6,GWQCSGDASVWNCDWI (disulfide 4-13 (inferred)) [SEQ ID NO 39]
9,5,YHACYQAGCYIY (disulfide 4-9 (inferred)) [SEQ ID NO 108]
10,4,B3
11,7,LWNCHGTDANWKCVLN (disulfide 4-13 (inferred)) [SEQ ID NO 37]
12,3,GWTCSQPGANVWNCTMQ (disulfide 4-14 (inferred)) [SEQ ID NO 85]
13,4,{Gd^T″}-GQWHCT[dR]RFPHHYCLYG (disulfide 5-14 (inferred); not fully specified (C-terminus)) [Compound ID 900]
14,7,KWECVHTKGEWYCETK (disulfide 4-13 (inferred)) [SEQ ID NO 65]
15,2,PWWCHEMPSMCFGF (disulfide 4-11 (inferred)) [SEQ ID NO 3]
16,7,SWSCGGDHNAWKCQYS (disulfide 4-13 (inferred)) [SEQ ID NO 36]

# Target: rat collagen, acid soluble, type I, rat tail (Upstate 08-115) (rat) (UniProt P02454)
# Sequence (P02454 152-1207, chain 1 of 2): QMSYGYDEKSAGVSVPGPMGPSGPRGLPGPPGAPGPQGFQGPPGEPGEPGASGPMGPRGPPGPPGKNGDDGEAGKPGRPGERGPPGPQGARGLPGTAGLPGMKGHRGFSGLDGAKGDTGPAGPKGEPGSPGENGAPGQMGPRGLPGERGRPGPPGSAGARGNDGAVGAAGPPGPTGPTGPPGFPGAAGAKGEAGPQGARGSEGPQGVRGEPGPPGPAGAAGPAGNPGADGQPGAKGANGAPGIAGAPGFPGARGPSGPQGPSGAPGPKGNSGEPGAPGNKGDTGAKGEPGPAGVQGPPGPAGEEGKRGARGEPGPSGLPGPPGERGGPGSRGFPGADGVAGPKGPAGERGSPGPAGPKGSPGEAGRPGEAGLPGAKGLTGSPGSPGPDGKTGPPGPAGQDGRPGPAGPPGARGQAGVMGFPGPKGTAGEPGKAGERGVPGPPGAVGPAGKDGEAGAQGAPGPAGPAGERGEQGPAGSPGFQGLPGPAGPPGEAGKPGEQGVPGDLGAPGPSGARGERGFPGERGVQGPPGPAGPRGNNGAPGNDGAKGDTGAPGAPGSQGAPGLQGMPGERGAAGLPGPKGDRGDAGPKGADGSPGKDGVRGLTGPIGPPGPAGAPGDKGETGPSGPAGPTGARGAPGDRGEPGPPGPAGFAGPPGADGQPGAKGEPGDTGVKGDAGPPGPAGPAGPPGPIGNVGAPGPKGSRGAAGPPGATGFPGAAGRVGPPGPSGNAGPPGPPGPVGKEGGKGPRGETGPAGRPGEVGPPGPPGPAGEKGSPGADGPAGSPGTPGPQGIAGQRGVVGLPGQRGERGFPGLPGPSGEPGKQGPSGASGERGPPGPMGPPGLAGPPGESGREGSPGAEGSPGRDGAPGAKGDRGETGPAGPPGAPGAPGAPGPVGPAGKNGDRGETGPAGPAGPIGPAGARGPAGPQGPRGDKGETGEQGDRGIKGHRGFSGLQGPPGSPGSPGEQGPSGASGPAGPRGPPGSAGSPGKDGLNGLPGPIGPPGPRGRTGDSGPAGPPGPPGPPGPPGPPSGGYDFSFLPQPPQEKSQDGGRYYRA
# Sequence (P02466 86-1125, chain 2 of 2, further chain): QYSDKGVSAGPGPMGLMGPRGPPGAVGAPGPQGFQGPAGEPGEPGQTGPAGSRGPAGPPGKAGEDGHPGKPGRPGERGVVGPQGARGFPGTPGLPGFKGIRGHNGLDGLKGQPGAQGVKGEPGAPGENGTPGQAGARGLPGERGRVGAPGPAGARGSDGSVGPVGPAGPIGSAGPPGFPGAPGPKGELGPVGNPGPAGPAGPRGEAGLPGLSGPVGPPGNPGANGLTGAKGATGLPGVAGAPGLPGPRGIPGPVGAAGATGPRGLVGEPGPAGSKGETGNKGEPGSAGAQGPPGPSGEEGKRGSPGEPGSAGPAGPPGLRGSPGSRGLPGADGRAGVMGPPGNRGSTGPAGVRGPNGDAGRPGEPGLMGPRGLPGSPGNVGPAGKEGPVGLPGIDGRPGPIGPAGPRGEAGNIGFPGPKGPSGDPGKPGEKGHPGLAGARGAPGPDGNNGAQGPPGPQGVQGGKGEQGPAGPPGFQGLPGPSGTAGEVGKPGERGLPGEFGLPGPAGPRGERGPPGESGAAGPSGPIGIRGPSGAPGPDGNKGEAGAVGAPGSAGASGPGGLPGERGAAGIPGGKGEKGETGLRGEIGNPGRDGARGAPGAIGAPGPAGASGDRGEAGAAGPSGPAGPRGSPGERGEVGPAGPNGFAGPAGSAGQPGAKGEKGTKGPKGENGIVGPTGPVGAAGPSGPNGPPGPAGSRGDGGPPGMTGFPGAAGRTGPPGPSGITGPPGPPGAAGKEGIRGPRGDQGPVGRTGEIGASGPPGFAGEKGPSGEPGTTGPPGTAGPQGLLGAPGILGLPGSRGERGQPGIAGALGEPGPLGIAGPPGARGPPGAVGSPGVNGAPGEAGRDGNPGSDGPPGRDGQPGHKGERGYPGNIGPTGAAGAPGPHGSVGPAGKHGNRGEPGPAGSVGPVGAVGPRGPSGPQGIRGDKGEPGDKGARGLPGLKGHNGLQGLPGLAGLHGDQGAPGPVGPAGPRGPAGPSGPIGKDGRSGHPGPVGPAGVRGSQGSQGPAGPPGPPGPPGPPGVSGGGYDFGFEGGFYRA
# Experiment: dried collagen assay
row,% bound [%],Binder
1,4,{Gd^T″}-GK([Gly-Gd^T″])WHCTTYFPHHYCL[Dip]G (disulfide 5-14 (inferred); not fully specified) [Compound ID 967]
2,8,{Gd^T″}-GK([Gly-Gd^T″])WHCTTLFPHHVCLYG (disulfide 5-14 (inferred)) [Compound ID 966]
3,6,YHACYQAGCYIW (disulfide 4-9 (inferred)) [SEQ ID NO 107]
4,4,{Gd^T″}-GQWTCSGDEYAWHCNY[dE] (disulfide 5-14 (inferred); not fully specified (C-terminus)) [Compound ID 832]
5,9,{Gd^T″}-GQWHCTTD[Phe(4-NH2)](Gd^T″)PHHYCLYG (disulfide 5-14 (inferred)) [Compound ID 885]
6,8,{Gd^T″}-DWTCS[dS]DEYTWHCNYE (disulfide 4-13 (inferred); not fully specified (C-terminus)) [Compound ID 836]
7,6,B4
8,7,{Gd^T}-DWTCS[dL]DEYTWHCNYE (disulfide 4-13 (inferred); not fully specified (C-terminus); reading uncertain) [Compound ID 847]
9,3,{Gd^T}-GQWACSGDEYTWHCNYE (disulfide 5-14 (inferred); not fully specified (C-terminus); reading uncertain) [Compound ID 840]
10,8,Cbz-GQWHCTK(Gd^T″)RFPHHYCLYG (disulfide 5-14 (inferred)) [Compound ID 940]
11,7,YHACYQAGCWAW (disulfide 4-9 (inferred)) [SEQ ID NO 137]
12,5,YHACAQAGCWIW (disulfide 4-9 (inferred)) [SEQ ID NO 133]
13,4,{Gd^T″}-GQWTCSGDEYTWACNYE (disulfide 5-14 (inferred); not fully specified (C-terminus)) [Compound ID 833]
14,6,GQWTCSADEYTWHCNYE (disulfide 5-14 (inferred)) [SEQ ID NO 142]
15,5,{Gd^T″}-GQWHCTDRFPHHYCLYG (disulfide 5-14 (inferred)) [Compound ID 936]
16,3,{Gd^T(3)}-GQWHCTTRFPHH[d1Nal]CLYG (disulfide 5-14; not fully specified (C-terminus)) [Compound ID 904]
17,4,B5
18,5,{Gd^T(3)}-GQWHCTTRFPHHY[Pen]LYG (disulfide 5-14; not fully specified (C-terminus)) [Compound ID 906]
